Assay results reported in patent publication US20250026859A1 (BEIGENE, published 2025).

B1: 35D6 (antibody, V domains shown)
VH: QSVEESGGRLVTPGTPLTLTCTVSGFSLSSHWMSWVRQAPGKGLEWIGIISSSGSTDYVSWAKGRFTISKTSTTVDLKITSPTTEDTATYFCARDLGYSTNIWGPGTLVTVSL
VL: AYDMTQTPASVEVTVGGTVTIKCQASQSIGSYLAWYQQKPGQRPKLLIYDASTLASGVSSRFKGSGSGTQFTLTISGVECADAATYYCQQGYSSSGVDNAFGGGTEVVVK
notes: also called recombinant anti-DXd mAb 35D6
B2: 77G10 (antibody, V domains shown)
VH: QSLEESGGRLVTPGTPLTLTCTASGFSLSSYYMSWVRQAPGKGLEYIGIISSSGSTDYASWAKGRFTISKTSTTVDLKITSPTTEDTATYFCARGWLDLWGQGTLVTVSS
VL: AAVLTQTPSPVSAAVGGTVSISCQSSKSVYNNNWLSWLQQKPGQPPKLLIHGASTLASGVPSRFKGSGSGTQFTLTISDVQCDDAATYYCAGGYSSSTDNAFGGGTEVVVK
notes: also called recombinant anti-DXd mAb 77G10
B3: 29D2 (antibody, V domains shown)
VH: QSVEESGGRLVTPGTPLTLTCTASGFSLSSYAMNWVRQAPGKGLEYIGIIYDSGTTYYASWAKGRFTISKTSTTVDLKITSPTTEDTATYFCARAALDIWGPGTLVTVSS
VL: AAVLTQTPSPVSAAVGGTVSISCQASKSVYNNNWLSWVQQTPGQPPKLLIYGASTLASGVPSRFKGSGSGTQFTLTISDVQCDDAATYYCAGGYGSSSDNAFGGGTEVVVE
notes: also called recombinant anti-DXd mAb 29D2
B4: 76G4 (antibody, V domains shown)
VH: QSVEESGGRLVTPGTPLTLTCTASGFSLSSYYMFWVRQAPGKGLEYIGYIGDGGYTSYATWAKGRFTISKTSSTTVDLKITSPTTEDTATYFCARDGFTSGSIWGPGTLVTVSS
VL: AAVLTQTPSPVSTAVGGTVTISCQSSKNVYNNNWLSWFQQKPGQPPKLLIYGTSTLASGVPSRFKGSGSGTQFTLTISDVQCDDAATYYCAGGYSSSSDNGFGAGTEVVVK
notes: also called recombinant anti-DXd mAb 76G4
B5: 28C8 (antibody, V domains shown)
VH: QSVEESGGRLVTPGTPLTLTCTVSGFSLSSYAMNWVRQAPGKGLEYIGIIYDSGSTYYANWAKGRFTISKTSTTVDLKITSPTTEDTATYFCARGYLDIWGPGTLVTVSS
VL: AAVLTQTPSPVSAAVGGTVSISCQSSKSVYNNKWLSWLQQKPGQPPKLLIYGASTLASGVPSRFKGSGSGTEFTLTISDVQCDDAATYYCAGGYSISSDNAFGGGTEVVVK
notes: also called recombinant anti-DXd mAb 28C8

target: T1, DXd-conjugated antigen; assay: competitive ELISA: coated DXd-conjugated antigen, antibody titrated with 1 ug/ml free biotin-DXd (small molecule) as competitor, streptavidin-HRP detection
T1 construct: also called DXd conjugated antigens

Binder | IC50
B1 | 5.24 ng/mL
B2 | 0.953 ng/mL
B3 | 1.26 ng/mL
B4 | 0.753 ng/mL
B5 | 1.58 ng/mL
